Variants at the floor of the assay were thinned out.
What was measured:
biotinyl-Phe-oxazolone = experiment: self-aminoacylation, catalytic enhancement (BFO) (fold over background); higher = more active; k-Seq, kA / k0A0; sequences stand for … in GGGAAUGGAUCCACAUCUACGAAUUC…UUCACUGCAGACUUGACGAAGCUG
How it was run: (§1)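 Catalytic enhancement equals the median kA over the uncatalyzed rate, the latter read from the low-activity peak of a bimodal Gaussian fit. Values of kA came from fitting each sequence's fraction reacted to a pseudo-first-order model, with 1000 bootstraps. Reacted RNA was captured with streptavidin and quantified by triplicate qPCR and Illumina sequencing after 90 minutes at room temperature with 2–1250 μM biotinyl-aminoacyl-oxazolone and 0.43 μM mutagenized RNA pools bearing a 21-nt variable region.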

biotinyl-Leu-oxazolone = experiment: self-aminoacylation, catalytic enhancement (BLO) (fold over background); higher = more active; k-Seq, kA / k0A0; sequences stand for … in GGGAAUGGAUCCACAUCUACGAAUUC…UUCACUGCAGACUUGACGAAGCUG
How it was run: as §1

biotinyl-Trp-oxazolone = experiment: self-aminoacylation, catalytic enhancement (BWO) (fold over background); higher = more active; k-Seq, kA / k0A0; sequences stand for … in GGGAAUGGAUCCACAUCUACGAAUUC…UUCACUGCAGACUUGACGAAGCUG
How it was run: as §1

biotinyl-Met-oxazolone = experiment: self-aminoacylation, catalytic enhancement (BMO) (fold over background); higher = more active; k-Seq, kA / k0A0; sequences stand for … in GGGAAUGGAUCCACAUCUACGAAUUC…UUCACUGCAGACUUGACGAAGCUG
How it was run: as §1

Row | Sequence | self-aminoacylation (biotinyl-Phe-oxazolone) | self-aminoacylation (biotinyl-Leu-oxazolone) | self-aminoacylation (biotinyl-Trp-oxazolone) | self-aminoacylation (biotinyl-Met-oxazolone)
1 | CAGCUUCAAACAAUCGGUCUG [Fam1A.1 aminoacylation ribozyme variant] | 52 | 2.01 | 27.1 | 
2 | AUCCACCUAGGUCAUAGGGUG [Fam2.2 aminoacylation ribozyme variant] | 2.19 | 2.16 | 2.2 | 
3 | CUACUUCAAACAAUCGCUGUG [Fam1A.1 aminoacylation ribozyme variant] |  | 2.54 |  | 
4 | CGACUUCAAACAAUCGGUUUG [Fam1A.1 aminoacylation ribozyme variant] | 63.5 | 2.33 | 32.7 | 
5 | AUUCACCUAGGUCAUCUCGUG [Fam2.2 aminoacylation ribozyme variant] | 5.77 | 2.29 |  | 
6 | CUGUUUCAAACAAUCGGUCUG [Fam1A.1 aminoacylation ribozyme variant] | 96.2 | 2.48 | 38.4 | 
7 | UAACUUCAAACAAUCGGUCUG [Fam1A.1 aminoacylation ribozyme variant] | 55.3 | 2.04 | 27.1 | 
8 | AUUACUCUGGUCAUCGAGGGA [Fam2.1 aminoacylation ribozyme variant] |  |  | 2.13 | 2.09
9 | AAGUUUGUUAAUAGUCGCAGG [Fam3.1 aminoacylation ribozyme variant] | 5.46 | 2.45 | 2.06 | 
10 | CCCGACUUCAAGCAAUCGGUC [Fam1B.1 aminoacylation ribozyme variant] | 91.8 | 2.85 | 47.6 | 
11 | CCACACUUCGAGCAAUCGGGC [Fam1B.1 aminoacylation ribozyme variant] | 9.16 | 2.07 |  | 
12 | AAGUUUACUAAAAGUCGCAAG [Fam3.1 aminoacylation ribozyme variant] | 2.76 | 2.08 |  | 
13 | UCACUUCAAACAAUCGGUCUG [Fam1A.1 aminoacylation ribozyme variant] | 70.7 | 2.11 | 35.1 | 
14 | AUUAUCCUGGUCAUCGAGGGA [Fam2.1 aminoacylation ribozyme variant] |  | 2.02 |  | 
15 | AUUACCCUGGUCAUCCAGUGC [Fam2.1 aminoacylation ribozyme variant] | 5.75 | 2.19 |  | 
16 | CUCCUUCAAACAAUCGGUCAG [Fam1A.1 aminoacylation ribozyme variant] | 14 |  | 7.87 | 
17 | CCACACUUCAAGAAAUCGGUC [Fam1B.1 aminoacylation ribozyme variant] | 10.8 |  | 6.66 | 
18 | CCACACGUCAAGCAAUCGGCC [Fam1B.1 aminoacylation ribozyme variant] | 3.91 |  | 2 | 
19 | AUACUUCAACCAAUCGGUCUG [Fam1A.1 aminoacylation ribozyme variant] | 5.09 |  | 4.18 | 
20 | CUCCUUCAAACAAUCGGACUG [Fam1A.1 aminoacylation ribozyme variant] | 12.9 |  | 8.83 | 
21 | AAUUUUGCUAAUAGUCGCAAG [Fam3.1 aminoacylation ribozyme variant] | 5 |  | 2.43 | 
22 | CCAAACUUCAAGCAAUCAGUC [Fam1B.1 aminoacylation ribozyme variant] | 9.55 |  | 3.03 | 
23 | AAGUGUGCUAAUAGUCACAAG [Fam3.1 aminoacylation ribozyme variant] | 6.87 |  | 3.91 | 

Row | Sequence | self-aminoacylation (biotinyl-Phe-oxazolone) | self-aminoacylation (biotinyl-Leu-oxazolone) | self-aminoacylation (biotinyl-Trp-oxazolone) | self-aminoacylation (biotinyl-Met-oxazolone)
24 | AAGUUUGCAAAUAGUCGCCAG [Fam3.1 aminoacylation ribozyme variant] | 2.38 |  | 2.05 | 
25 | CUACUUCAAAGAAUCGGUCUC [Fam1A.1 aminoacylation ribozyme variant] | 4.32 |  | 3.26 | 
26 | CUACUUCAAGAAAUCGGUCUG [Fam1A.1 aminoacylation ribozyme variant] | 4.36 |  | 3.05 | 
27 | CUACUUCAAACAAUCAGACUG [Fam1A.1 aminoacylation ribozyme variant] | 8.24 |  | 2.98 | 
28 | CCACAGUUCAAGCAAUCGCUC [Fam1B.1 aminoacylation ribozyme variant] | 2.03 | 2.43 |  | 
29 | AAUACCCUGGUCAUCGAGUGC [Fam2.1 aminoacylation ribozyme variant] | 3.36 |  | 2.03 | 
30 | AAGUUUGCUAUUAGUCGCGAG [Fam3.1 aminoacylation ribozyme variant] | 4.31 |  | 2.3 | 
31 | CUUCUUCAAACAAUCGGUGUG [Fam1A.1 aminoacylation ribozyme variant] | 4.48 |  | 2.46 | 
32 | AUUUCCCUGGUCAUCAAGUGA [Fam2.1 aminoacylation ribozyme variant] | 2.51 | 2.2 | 2.88 | 
33 | AAGUGUGCUAAUAGUCGCGAG [Fam3.1 aminoacylation ribozyme variant] |  | 2.47 | 2.41 | 
34 | AUUCACCUAGAUCAUCGGGUA [Fam2.2 aminoacylation ribozyme variant] | 5.46 |  |  | 2.12
35 | CUACUUCAGACAAUCGGCCUG [Fam1A.1 aminoacylation ribozyme variant] | 3.82 |  | 2.23 | 
36 | UUAGUUCAAACAAUCGGUCUG [Fam1A.1 aminoacylation ribozyme variant] | 4.01 |  | 2.94 | 
37 | AUUCACAUAGGUCAUCGGGGG [Fam2.2 aminoacylation ribozyme variant] |  |  | 2.66 | 2.28
38 | AUUCACCGAGGUCAUCGGGAG [Fam2.2 aminoacylation ribozyme variant] | 4.74 |  |  | 2.23
39 | CUGCUUCAAACAAUCGAUCUG [Fam1A.1 aminoacylation ribozyme variant] | 7.44 |  | 2.77 | 
40 | CUACUUCAAAAAAUCGGUCGG [Fam1A.1 aminoacylation ribozyme variant] | 4.54 |  | 5.6 | 
41 | CCACUUCAAUCAAUCGGUCUG [Fam1A.1 aminoacylation ribozyme variant] | 41.8 | 2.1 | 29.4 | 
42 | AUUAGCCUGGUCGUCGAGUGA [Fam2.1 aminoacylation ribozyme variant] | 7.67 |  | 2.09 | 
43 | CGACACUUCAAGCAAUCGGUC [Fam1B.1 aminoacylation ribozyme variant] | 13.4 |  | 7.38 | 
44 | AUACUUCAAACAAUCGGUCUU [Fam1A.1 aminoacylation ribozyme variant] | 6.84 |  | 4.01 | 
45 | AAGUUUACUAAUUGUCGCAAG [Fam3.1 aminoacylation ribozyme variant] | 2.6 |  | 2 | 
